# Results from FireProtDB (doi:10.1007/s00775-020-01777-0).
# Settings: pH 7.4, UV/Vis spectroscopy, HEPES, transition: 2, reversible: > 90% (Yes), whole UniProt chain shown; for denaturant m value / denaturant midpoint (higher = more stable) / unfolding free energy: 15 °C, GdnHCl, potassium ferricyanide; for Tm / unfolding enthalpy (van 't Hoff): Thermal
# [1] = Fragilariopsis cylindrus CCMP1102
Protein,denaturant m value [1],denaturant midpoint (higher = more stable) [1],unfolding free energy [1],Tm [1],unfolding enthalpy (van 't Hoff) [1],denaturant m value (Thalassiosira pseudonana),denaturant midpoint (higher = more stable) (Thalassiosira pseudonana),unfolding free energy (Thalassiosira pseudonana),Tm (Thalassiosira pseudonana),unfolding enthalpy (van 't Hoff) (Thalassiosira pseudonana)
"Cytochrome c-553 wild type, A0A1E7EP28 (protein) MKFAIFATLLVSASAFSINKADVAKAAAAGAIAFSVAAGPAFAGDVGAGEQIFNANCAACHAGGQNVIMPEKTLEKEALDQYLSGGRSEKSVMTQVTNGKNAMPAFGGRLSEEDIANVASYVISSAEAGWEE",4.6 kcal/mol/M,0.5 M,2.15 kcal/mol,28.8 °C,44.7 kcal/mol,–,–,–,–,–
"Cytochrome c-553 wild type, B8C6L5 (protein) MKLTIVAALIASASAWTTPKSFESVKAAVAGAAVTAGVAVSPAFAGDVGAGEQIFNANCAACHAGGQNVIMPDKTLEKEALEQYLAGGRNEKAVMTQVTNGKNAMPAFGGRLSDEDIANVASYVIATSEAGWD",–,–,–,–,–,2.1 kcal/mol/M,1.2 M,2.63 kcal/mol,39.1 °C,38.7 kcal/mol
